From patent US9809835B2, “Quantitative control of sialylation” (Roche Diagnostics Operations, Inc., priority 2013, dated 2017)

T1: Δ89 hST6Gal-I (Homo sapiens, UniProt P15907)
T1 construct: the construct of Epo-AP-Δ89 hST6Gal-I was secreted without the N-terminal amino acids AP; Erythropoietin signal peptide (Epo) (N, cleaved yes); AP spacer (two amino acids) (N, cleaved yes); made in house; host or cells: HEK293 (transient gene expression, secreted)
T1 sequence (P15907 90-406): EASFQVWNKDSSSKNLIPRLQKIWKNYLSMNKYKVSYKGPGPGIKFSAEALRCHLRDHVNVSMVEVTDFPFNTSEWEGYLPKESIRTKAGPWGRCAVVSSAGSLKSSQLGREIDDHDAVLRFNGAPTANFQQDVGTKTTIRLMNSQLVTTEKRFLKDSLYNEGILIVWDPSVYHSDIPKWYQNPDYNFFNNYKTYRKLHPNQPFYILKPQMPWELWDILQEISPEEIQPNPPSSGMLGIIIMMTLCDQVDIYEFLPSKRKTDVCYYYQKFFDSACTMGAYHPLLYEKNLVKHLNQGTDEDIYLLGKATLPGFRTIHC


Legend:
[1] = biological target: T1, Δ89 hST6Gal-I; test: Inhibition of sialidase activity of Δ89 hST6Gal-I by CTP; format: biochemical
Procedure: The compound cytidine triphosphate (CTP) is a potent inhibitor of sialyltransferases (Scudder P R & Chantler E N B B A 660 (1981) 136-141). […] After 7 h of incubation the G2+2SA content was 94%. […] At different times samples were taken and the content of G2+0SA, G2+1SA and G2+2SA was determined by mass spectrometry. […] After 72 h of incubation 73% of G2+2SA were still present.

[2] = system: MAB<IL-1R>; test: Sialylation of humanized monoclonal antibody MAB<IL-1R> using Δ89 hST6Gal-I, glycan content by mass spectrometry; format: biochemical
Procedure: A highly galactosylated humanized monoclonal antibody IgG4 MAB<IL-1R>(WO 2005/023872) was used in sialylation experiments. […] The samples were incubated at 37° C. for a defined time. To stop the reaction the samples were frozen at −20° C. For mass analysis 100 μl denaturing buffer (6 M guanidinium chloride) and 30 μl TCEP (0.1 mM, diluted in denaturing buffer) were added to the samples and the samples were incubated at 37° C. for 1 h. The sample were buffered in electrospray-medium (20% ACN, 1% FA) using pre-equilibrated illustra™ Nap5-Columns (GE-Healthcare). Samples were analyzed by electrospray ionization mass spectrometry and the content of G2+0SA, G2+1SA and G2+2SA N-glycans was determined. A Micromass Q-Tof Ultima and a Synapt G2 HDMS device (Waters UK) were used, the software used was MassLynx V 4.1. To determine the kinetics of the sialylation the reaction was incubated up to 72 h.

Row | degradation of G2+2SA caused by the sialidase activity ([1]; CTP 0.67 mM, compared to inhibitor-free conditions) | G2+2SA still present ([1]; after 72 h of incubation, CTP added after 7 h, final concentration 0.67 mM) [%] | Molecule | content of the bi-sialylated form G2+2SA ([2]; after 2 hours of incubation, 37° C., 30 μg enzyme/300 μg MAB<IL-1R>, CMP-NANA donor) [%] | G2+2SA content ([2]; after 7 h of incubation, before addition of CTP (Example 11)) [%] | G2+1SA content ([2]; after an incubation of 48 h, 37° C., 30 μg enzyme/300 μg MAB<IL-1R>, CMP-NANA donor) [%] | dominant glycan species of MAB<IL-1R> (mass spectrum) ([2]; t=8 h) | dominant glycan species of MAB<IL-1R> (mass spectrum) ([2]; t=48 h)
1 | significantly reduced | 73 | Nc1ccn([C@@H]2O[C@H](COP(=O)(O)OP(=O)(O)OP(=O)(O)O)[C@@H](O)[C@H]2O)c(=O)n1 [CTP, cytidine triphosphate] |  |  |  |  | 
2 |  |  | Δ89 hST6Gal-I: N-terminally truncated human β-galactoside-α-2,6-sialyltransferase I, positions 1 to 89 of SEQ ID NO:1 deleted; amino acid sequence of SEQ ID NO:2 (protein, delta89 truncation variant of hST6Gal-I) EASFQVWNKDSSSKNLIPRLQKIWKNYLSMNKYKVSYKGPGPGIKFSAEALRCHLRDHVNVSMVEVTDFPFNTSEWEGYLPKESIRTKAGPWGRCAVVSSAGSLKSSQLGREIDDHDAVLRFNGAPTANFQQDVGTKTTIRLMNSQLVTTEKRFLKDSLYNEGILIVWDPSVYHSDIPKWYQNPDYNFFNNYKTYRKLHPNQPFYILKPQMPWELWDILQEISPEEIQPNPPSSGMLGIIIMMTLCDQVDIYEFLPSKRKTDVCYYYQKFFDSACTMGAYHPLLYEKNLVKHLNQGTDEDIYLLGKATLPGFRTIHC | 88 | 94 | 71 | G2+2SA is the dominant form | G2+1SA is the most abundant species
